This assay addresses CD162 (P-selectin glycoprotein ligand-1), mouse, on MLL-AF9 AML blasts (mouse (endogenous in murine MLL-AF9 AML blasts)) (UniProt Q62170). Description: flow cytometry on cells; E-selectin–IgM supernatant precomplexed with AF647 anti-human IgM F(ab)2, added to KIT+-enriched BM cells from leukemic mice (WT or Selplg-/- MLL-AF9 AML), 30 min on ice; gated on GFP+ KIT+ blasts; control: empty-vector IgM.

Among the data in paper PMC7393995 are percent of gated AML blasts that bound E-selectin–IgM values, retold here.

Sequence of UniProt Q62170 (Q62170 42-397): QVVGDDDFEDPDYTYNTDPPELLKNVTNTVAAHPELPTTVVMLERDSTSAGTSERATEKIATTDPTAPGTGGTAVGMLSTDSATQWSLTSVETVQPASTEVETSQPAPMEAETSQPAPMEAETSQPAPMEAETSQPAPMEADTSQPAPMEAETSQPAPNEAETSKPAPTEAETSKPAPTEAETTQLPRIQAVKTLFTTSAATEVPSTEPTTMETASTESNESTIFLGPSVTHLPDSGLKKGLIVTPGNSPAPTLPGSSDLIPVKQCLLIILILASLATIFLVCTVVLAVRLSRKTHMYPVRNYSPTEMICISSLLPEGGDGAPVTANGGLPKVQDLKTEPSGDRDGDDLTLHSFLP

As to “recombinant E-selectin–human-IgM fusion protein (from UniProt P16581 22-610)”, the percent of gated AML blasts that bound E-selectin–IgM turned out to be 65%.
